Kd, koff and kon data for eight molecules are collected here from patent US20240166688A1 (NIBEC, published 2024).

In this assay the target is HDAC5 protein (Abcam, MA, USA). Description: SPR, Biacore T200; HDAC5 amine-coupled to CM5 chip, peptide as analyte, 1:1 model. A general note: In SPR one partner is held on a chip, and binding of the other changes the refractive index at the surface.
Chain of HDAC5 protein (Abcam, MA, USA) (chain, as listed by the source): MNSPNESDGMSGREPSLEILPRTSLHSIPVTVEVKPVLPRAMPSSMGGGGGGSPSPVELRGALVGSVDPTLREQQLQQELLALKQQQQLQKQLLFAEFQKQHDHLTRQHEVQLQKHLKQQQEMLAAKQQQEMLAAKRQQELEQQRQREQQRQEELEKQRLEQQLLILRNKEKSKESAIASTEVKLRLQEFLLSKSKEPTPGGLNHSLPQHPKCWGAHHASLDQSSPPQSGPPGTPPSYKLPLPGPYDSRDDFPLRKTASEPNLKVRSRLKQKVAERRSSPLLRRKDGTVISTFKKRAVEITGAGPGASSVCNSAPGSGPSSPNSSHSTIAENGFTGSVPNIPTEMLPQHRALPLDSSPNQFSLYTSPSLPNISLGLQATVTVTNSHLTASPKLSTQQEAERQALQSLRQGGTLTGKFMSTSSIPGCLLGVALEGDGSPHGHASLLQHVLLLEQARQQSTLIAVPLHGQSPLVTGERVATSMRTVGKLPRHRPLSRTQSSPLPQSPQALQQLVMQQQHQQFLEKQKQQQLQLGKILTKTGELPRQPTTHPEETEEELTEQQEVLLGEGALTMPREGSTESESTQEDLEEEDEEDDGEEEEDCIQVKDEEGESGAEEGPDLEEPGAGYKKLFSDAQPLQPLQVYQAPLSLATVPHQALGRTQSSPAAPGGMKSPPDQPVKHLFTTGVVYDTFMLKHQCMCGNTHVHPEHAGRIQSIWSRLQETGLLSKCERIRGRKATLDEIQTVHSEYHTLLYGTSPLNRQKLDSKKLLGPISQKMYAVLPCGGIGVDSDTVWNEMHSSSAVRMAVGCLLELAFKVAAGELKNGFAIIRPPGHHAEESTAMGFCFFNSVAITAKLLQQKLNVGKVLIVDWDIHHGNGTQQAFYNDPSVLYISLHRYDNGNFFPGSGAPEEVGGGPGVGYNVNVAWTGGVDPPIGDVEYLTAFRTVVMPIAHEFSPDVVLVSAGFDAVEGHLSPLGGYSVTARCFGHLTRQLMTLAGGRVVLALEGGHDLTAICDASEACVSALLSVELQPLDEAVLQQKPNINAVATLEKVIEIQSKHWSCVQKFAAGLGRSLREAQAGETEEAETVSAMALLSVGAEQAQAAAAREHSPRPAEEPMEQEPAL
A word on the Kd: it is the equilibrium constant for the complex coming apart. Low readings indicate a tighter complex, high ones a looser complex. In general, koff refers to the rate constant with which the complex falls apart. Low readings indicate a long-lived complex, high ones a short-lived complex. The term kon denotes a measure of how fast the partners come together. A higher kon goes with faster complex formation. The molecule GKMSTRGRKCMRRKK [peptide of SEQ ID NO: 7 (M6)] had a dissociation constant Kd of 704 nM, an off-rate (koff) of 0.0476 s⁻¹ and a kon of 67500 M⁻¹ s⁻¹.
Molecule GKCSTRGRKMMRRKK [peptide of SEQ ID NO: 4 (M3)] displayed a Kd of 940 nM, a koff of 0.0679 s⁻¹ and a kon of 72200 M⁻¹ s⁻¹.
The matching figures for GKCSTRGRKCCRRKK (also called AIP) [peptide of SEQ ID NO: 1]: 676 nM, 0.0726 s⁻¹ and 108000 M⁻¹ s⁻¹.
The like results for GKMSTRGRKCCRRKK [peptide of SEQ ID NO: 5 (M4)] were, in that order, 468 nM, 0.0309 s⁻¹ and 65900 M⁻¹ s⁻¹.
The like results for GKMSTRGRKMMRRKK [peptide of SEQ ID NO: 8 (M7)] were, in that order, 86.8 nM, 0.00478 s⁻¹ and 55000 M⁻¹ s⁻¹.
On to GKCSTRGRKCMRRKK [peptide of SEQ ID NO: 2 (M1)], for which binding was characterised by a dissociation constant (Kd) of 924 nM, the koff turned out to be 0.0687 s⁻¹ and the on-rate constant (kon) stood at 74400 M⁻¹ s⁻¹.
In turn, GKMSTRGRKMCRRKK [peptide of SEQ ID NO: 6 (M5)] gave a Kd of 444 nM, a koff of 0.0446 s⁻¹ and an on-rate (kon) of 100000 M⁻¹ s⁻¹.
The like results for GKCSTRGRKMCRRKK [peptide of SEQ ID NO: 3 (M2)] were, in that order, 725 nM, 0.0595 s⁻¹ and 82100 M⁻¹ s⁻¹.
